B1: Lysine-specific demethylase 4A (Homo sapiens), O75164 (parent)
chain: MASESETLNPSARIMTFYPTMEEFRNFSRYIAYIESQGAHRAGLAKVVPPKEWKPRASYDDIDDLVIPAPIQQLVTGQSGLFTQYNIQKKAMTVREFRKIANSDKYCTPRYSEFEELERKYWKNLTFNPPIYGADVNGTLYEKHVDEWNIGRLRTILDLVEKESGITIEGVNTPYLYFGMWKTSFAWHTEDMDLYSINYLHFGEPKSWYSVPPEHGKRLERLAKGFFPGSAQSCEAFLRHKMTLISPLMLKKYGIPFDKVTQEAGEFMITFPYGYHAGFNHGFNCAESTNFATRRWIEYGKQAVLCSCRKDMVKISMDVFVRKFQPERYKLWKAGKDNTVIDHTLPTPEAAEFLKESELPPRAGNEEECPEEDMEGVEDGEEGDLKTSLAKHRIGTKRHRVCLEIPQEVSQSELFPKEDLSSEQYEMTECPAALAPVRPTHSSVRQVEDGLTFPDYSDSTEVKFEELKNVKLEEEDEEEEQAAAALDLSVNPASVGGRLVFSGSKKKSSSSLGSGSSRDSISSDSETSEPLSCRAQGQTGVLTVHSYAKGDGRVTVGEPCTRKKGSAARSFSERELAEVADEYMFSLEENKKSKGRRQPLSKLPRHHPLVLQECVSDDETSEQLTPEEEAEETEAWAKPLSQLWQNRPPNFEAEKEFNETMAQQAPHCAVCMIFQTYHQVEFGGFNQNCGNASDLAPQKQRTKPLIPEMCFTSTGCSTDINLSTPYLEEDGTSILVSCKKCSVRVHASCYGVPPAKASEDWMCSRCSANALEEDCCLCSLRGGALQRANDDRWVHVSCAVAILEARFVNIAERSPVDVSKIPLPRFKLKCIFCKKRRKRTAGCCVQCSHGRCPTAFHVSCAQAAGVMMQPDDWPFVVFITCFRHKIPNLERAKGALQSITAGQKVISKHKNGRFYQCEVVRLTTETFYEVNFDDGSFSDNLYPEDIVSQDCLQFGPPAEGEVVQVRWTDGQVYGAKFVASHPIQMYQVEFEDGSQLVVKRDDVYTLDEELPKRVKSRLSVASDMRFNEIFTEKEVKQEKKRQRVINSRYREDYIEPALYRAIME

Variants of: B1
Conditions: with h31t_human H3-4, Q16695

Row | effect of a mutation on the interaction | Variant
1 | disrupting interaction | N290V
2 | disrupting interaction | N290A
3 | disrupting interaction | N290D
4 | disrupting interaction | N290I
5 | disrupting interaction | K241A
6 | disrupting interaction | K241L

Continued, variant first:

Row | Variant | effect of a mutation on the interaction
7 | Y177L | disrupting interaction
8 | Y177F | decreasing interaction
9 | Y175F | decreasing interaction
10 | Q88A | decreasing interaction
11 | D135A | decreasing interaction
12 | N86A | decreasing interaction

Variants of: B1
Conditions: with h31t_human H3-4, Q16695
Remark: another data set of the same source

Row | effect of a mutation on the interaction | Variant
13 | disrupting interaction strength | G165A;G170A
14 | disrupting interaction strength | G133A;G138A

From IntAct's records for PubMed 17567753
